In US20100009868, “Self-Assembled Combinatorial Encoding Nanoarrays for Multiplexed Biosensing” (The Arizona Board of Regents a body corporate acti ng for …, published 2010):
Like-named read-outs stand apart in the source and are kept apart here.

Experiments:
[1] = target: T1, BSA (bovine serum albumin) (UniProt P02769 P02769:25-607); assay: 6 uM BSA, no color change of array; conditions: label: Alexa Fluor 488
Procedure: (§1) Desired amount of detection targets were added into 10 μl multiplexed detection solution. Unless elsewhere mentioned, final concentration of detection targets was 0.5 μM for DNA targets, 6 μM for thrombin and 3 mM for ATP. The mixture was thoroughly mixed by vortexing and then incubated at room temperature for 30 min before imaging.
(§2) Two different aptamer binding targets were used: human α-thrombin and ATP (See Table 1). The DNA sequences of probe 3 and 4 are, in fact, the aptamer sequences for these two targets.

alpha-thrombin [2] = target: alpha-thrombin (Homo sapiens, UniProt P00734;P00734 P00734:328-363,P00734:364-622); assay: possibly CITED (ref 13); apparent Kd for strand-displacement probe; Table 1 labels of probes 3 and 4 appear swapped, Table 2 and sequence assign probe 3 to thro
alpha-thrombin [3] = target: T2, alpha-thrombin (Homo sapiens, UniProt P00734;P00734 P00734:328-363,P00734:364-622)
alpha-thrombin [4] = target: T2, alpha-thrombin; assay: no color change of array; 6 uM thrombin, 1xTAE-Mg, RT; conditions: label: Alexa Fluor 488; partially hybridised to anchor strand on DNA B tile
Procedure: as §1, §2

[5] = target: T1, BSA (bovine serum albumin); assay: no significant 3MI fluorescence change on array; conditions: label: 3MI at position 7
[6] = partially hybridised to anchor strand on DNA B tile

T1 sequence (P02769 25-607, one chain of several): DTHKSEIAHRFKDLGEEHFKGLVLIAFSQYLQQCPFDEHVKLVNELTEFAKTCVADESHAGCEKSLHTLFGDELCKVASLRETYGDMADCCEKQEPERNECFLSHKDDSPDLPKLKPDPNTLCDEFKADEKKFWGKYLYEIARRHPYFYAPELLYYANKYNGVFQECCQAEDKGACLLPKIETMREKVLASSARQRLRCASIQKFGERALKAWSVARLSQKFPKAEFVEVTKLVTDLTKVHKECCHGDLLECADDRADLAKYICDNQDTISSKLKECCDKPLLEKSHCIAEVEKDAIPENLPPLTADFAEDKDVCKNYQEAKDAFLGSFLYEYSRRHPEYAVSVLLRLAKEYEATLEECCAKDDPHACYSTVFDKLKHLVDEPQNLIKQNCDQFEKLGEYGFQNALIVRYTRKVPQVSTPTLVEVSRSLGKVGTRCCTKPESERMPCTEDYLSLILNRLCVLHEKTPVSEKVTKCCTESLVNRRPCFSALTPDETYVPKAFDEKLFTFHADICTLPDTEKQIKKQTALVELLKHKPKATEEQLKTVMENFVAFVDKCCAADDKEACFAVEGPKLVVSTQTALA

CACTGTGGTTGGTGTGGTTGG (ssDNA) [Probe 3 (thrombin aptamer containing)]
binding result ([1]; partially hybridised to anchor strand on DNA B tile (8-12 bp)): no binding
Kd (alpha-thrombin [2]): ~400 nM

CACTGACCTGGGGGAGTATTGCGGAGGAAGGT (ssDNA) [Probe 4 (ATP aptamer containing)]
binding result [1, 6]: no binding

CGTCTCTACCTGATTACTATTGCATCT (ssDNA) [Probe 1 (SARS probe)]
binding result (alpha-thrombin [3]): no binding
binding result [1, 6]: no binding

TTTAACAGCAGTTGAGTTGATACTACTGGCCTAATTCCA (ssDNA) [Probe 2 (HIV probe)]
binding result [1, 6]: no binding
binding result (alpha-thrombin [4]): no binding

GGTTGGTGTGGTTGG (structured_DNA, dT7 replaced by 3-methylisoxanthopterin (3MI)) [3MI-TBA signaling aptamer on DNA tile array]
binding result [5]: no binding
